Where two headings read alike, the source gives them in different places. Values belong to the molecule of their own block, whether it stands above or below them.
Experiments:
GDF8 (myostatin) [1] = molecular target: GDF8 (myostatin) (UniProt O14793); test: SPR (Biacore T200), GDF8 amine-coupled, FST-Fab as analyte, single-cycle kinetics
Activin B [2] = molecular target: T1, Activin B (UniProt P09529 293-407); test: SPR (Biacore T200), FST-Fab captured on anti-F(ab')2, Activin B as analyte, 1:1 model
T1 sequence (looked up): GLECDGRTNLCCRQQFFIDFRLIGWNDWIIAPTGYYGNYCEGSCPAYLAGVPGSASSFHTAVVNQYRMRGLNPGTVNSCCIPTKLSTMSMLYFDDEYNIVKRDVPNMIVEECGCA
Method: (§1) The binding kinetics of the fusion proteins to various targets (see below) were determined by surface plasmon resonance using a Biacore T200 (Cytiva). For each type of assay, kinetic parameters were determined using a 1:1 binding model using Biacore T200 Evaluation software (version 3.0).
(§2) For the assessment of binding to Activin A and Activin B (R&D Systems), a goat anti-human F(ab′)₂ fragment specific antibody (Jackson ImmunoResearch) was first immobilised on a CM5 Sensor Chip via amine coupling chemistry to a level of approximately 5000RU. Using a standard multi-cycle kinetic approach, each analysis cycle consisted of capture of FST-Fab to the anti-F(ab′)₂ surface followed by injection of analyte and finally surface regeneration using 60s injections of 50 mM HCl, and 5 mM NaOH. […] The binding response of a parallel blank surface was subtracted, and buffer blank injections were included to subtract instrument noise and drift.

Activin A [3] = molecular target: T2, Activin A (UniProt P08476 311-426); test: SPR (Biacore T200), FST-Fab captured on anti-F(ab')2, Activin A as analyte, 1:1 model
T2 sequence (looked up): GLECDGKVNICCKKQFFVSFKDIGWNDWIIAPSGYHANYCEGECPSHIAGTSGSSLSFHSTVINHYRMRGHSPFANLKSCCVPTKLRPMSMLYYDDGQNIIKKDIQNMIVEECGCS
Method: as §1, §2

Activin B [4] = molecular target: T1, Activin B; test: cell-based or functional assay
GDF8 (myostatin) [5] = molecular target: T3, GDF8 (myostatin) (UniProt O14793 267-375); test: cell-based or functional assay
GDF11 [6] = molecular target: T4, GDF11 (UniProt O95390 299-407); test: cell-based or functional assay
Activin B [7] = molecular target: T1, Activin B; test: cell-based or functional assay; remark: listed apart in the source
Activin A [8] = molecular target: T2, Activin A; test: cell-based or functional assay
GDF8 (myostatin) [9] = molecular target: T3, GDF8 (myostatin); test: cell-based or functional assay; remark: listed apart in the source
GDF11 [10] = molecular target: T4, GDF11; test: cell-based or functional assay; remark: listed apart in the source
Activin B [11] = molecular target: T1, Activin B; test: cell-based or functional assay; remark: listed apart in the source
Activin A [12] = molecular target: T2, Activin A; test: cell-based or functional assay; remark: listed apart in the source
GDF8 (myostatin) [13] = molecular target: T3, GDF8 (myostatin); test: cell-based or functional assay; remark: listed apart in the source
GDF11 [14] = molecular target: T4, GDF11; test: cell-based or functional assay; remark: listed apart in the source
GDF11 [15] = molecular target: T4, GDF11; test: SPR (Biacore T200), GDF11 amine-coupled, FST-Fab as analyte, single-cycle kinetics
Method: as §1
(§3) For the assessment of binding to GDF8 and GDF11 (R&D Systems), each one of GDF8 and GDF11 was immobilised by amine coupling chemistry to the surface of a CM5 sensorchip to achieve an immobilisation level of approximately 250RU. For both GDF8 and GDF11, analysis was conducted using a single-cycle kinetics approach with sequential 180s injections of FST-Fab at increasing concentrations (0.8, 4, 20, 100 and 500 nM) in HBS-EP+ running buffer (Cytiva) at 25° C. at a flow rate of 30 μl/min, followed by monitoring the dissociation for 1800s. The binding response of a parallel blank surface was subtracted, and a series of buffer blank injections were conducted to subtract instrument noise and drift.

GDF8 (myostatin) [16] = molecular target: T3, GDF8 (myostatin); test: SPR (Biacore T200), GDF8 amine-coupled, FST-Fab as analyte, single-cycle kinetics
Method: as §1, §3

Human Albumin = molecular target: T5, Human Albumin (human, UniProt P02768 25-609); test: SPR (Biacore T200), fusion protein captured on anti-F(ab')2, albumin as analyte, 1:1 model
T5 construct: Analyte in the Biacore albumin assay; also called human serum albumin; HSA
Method: as §1
For the assessment of binding to albumin: A goat anti-human F(ab′)2 fragment specific antibody (Jackson ImmunoResearch) was first immobilised on a CM5 Sensor Chip via amine coupling chemistry to a level of approximately 5000RU. Using a standard multi-cycle kinetic approach, each analysis cycle consisted of capture of the fusion protein to be tested to the anti-F(ab′)2 surface followed by injection of albumin and finally surface regeneration using 60s injections of 50 mM HCl, and 5 mM NaOH. […] The binding response of a parallel blank surface was subtracted and buffer blank injections were included to subtract instrument noise and drift.

Activin B [17] = molecular target: T1, Activin B; test: cell-based or functional assay; remark: listed apart in the source
Activin A [18] = molecular target: T2, Activin A; test: cell-based or functional assay; remark: listed apart in the source
GDF8 (myostatin) [19] = molecular target: T3, GDF8 (myostatin); test: cell-based or functional assay; remark: listed apart in the source
GDF11 [20] = molecular target: T4, GDF11; test: cell-based or functional assay; remark: listed apart in the source
Activin A [21] = molecular target: T2, Activin A; test: cell-based or functional assay; remark: listed apart in the source

Molecule: FST288-Fab
Kd (GDF8 (myostatin) [1]): 0.24 nM
Kd (Activin B [2]): 0.071 nM
Kd (Activin A [3]): 0.032 nM

B2: FST288WT (other)
chain: GNCWLRQAKNGRCQVLYKTELSKEECCSTGRLSTSWTEEDVNDNTLFKWMIFNGGAPNCIPCKETCENVDCGPGKKCRMNKKNKPRCVCAPDCSNITWKGPVCGLDGKTYRNECALLKARCKEQPELEVQYQGRCKKTCRDVFCPGSSTCVVDQTNNAYCVTCNRICPEPASSEQYLCGNDGVTYSSACHLRKATCLLGRSIGLAYEGKCIKAKSCEDIQCTGGKKCLWDFKVGRGRCSLCDELCPDSKSDEPVCASDNATYASECAMKEAACSSGVLLEVKHSGSCN
IC50 (geomean), Smad2/3 reporter gene assay, HEK-Blue TGFb cells (Activin B [11]): 0.45 nM
IC50 (geomean), Smad2/3 reporter gene assay, HEK-Blue TGFb cells (Activin A [12]): 0.14 nM
IC50 (geomean), Smad2/3 reporter gene assay, HEK-Blue TGFb cells (GDF8 (myostatin) [13]): 0.73 nM
IC50 (geomean), Smad2/3 reporter gene assay, HEK-Blue TGFb cells (GDF11 [14]): 0.77 nM
IC50 (read off the curve) (Activin B [17]): ~0.5 nM
IC50 (read off the curve) (Activin A [18]): ~0.4 nM
IC50 (read off the curve) (GDF8 (myostatin) [19]): ~2 nM
IC50 (read off the curve) (GDF11 [20]): ~2 nM

Now from value to molecule:

Kd (GDF8 (myostatin) [1]): 0.15 nM
Kd (Activin B [2]): 0.069 nM
Kd (Activin A [3]): 0.2 nM
Molecule: FST315-Fab

IC50 (read off the curve) (Activin B [4]): ~0.6 nM
IC50 (read off the curve) (GDF8 (myostatin) [5]): ~1 nM
IC50 (read off the curve) (GDF11 [6]): ~2 nM
fold potency against the parent FST315WT, Smad2/3 reporter gene assay (Activin B [7]): 3 fold
fold potency against the parent FST315WT, Smad2/3 reporter gene assay (Activin A [8]): 3 fold
fold potency against the parent FST315WT, Smad2/3 reporter gene assay (GDF8 (myostatin) [9]): 2 fold
fold potency against the parent FST315WT, Smad2/3 reporter gene assay (GDF11 [10]): 2 fold
IC50 (geomean), Smad2/3 reporter gene assay, HEK-Blue TGFb cells (Activin B [11]): 0.46 nM
IC50 (geomean), Smad2/3 reporter gene assay, HEK-Blue TGFb cells (Activin A [12]): 0.1 nM
IC50 (geomean), Smad2/3 reporter gene assay, HEK-Blue TGFb cells (GDF8 (myostatin) [13]): 1.4 nM
IC50 (geomean), Smad2/3 reporter gene assay, HEK-Blue TGFb cells (GDF11 [14]): 4.24 nM
Kd (Activin B [2]): 0.011 nM
Kd (GDF11 [15]): 1.25 nM
Kd (Activin A [3]): 0.011 nM
Kd (GDF8 (myostatin) [16]): 2.3 nM
Kd (Human Albumin): 2.6 nM
B1: FST315HBM-Fab (other)
heavy: GNCWLRQAKNGRCQVLYKTELSKEECCSTGRLSTSWTEEDVNDNTLFKWMIFNGGAPNCIPCKETCENVDCGPGKACRMNAANKPRCVCAPDCSNITWKGPVCGLDGKTYRNECALLKARCKEQPELEVQYQGRCKKTCRDVFCPGSSTCVVDQTNNAYCVTCNRICPEPASSEQYLCGNDGVTYSSACHLRKATCLLGRSIGLAYEGKCIKAKSCEDIQCTGGKKCLWDFKVGRGRCSLCDELCPDSKSDEPVCASDNATYASECAMKEAACSSGVLLEVKHSGSCNSISEDTEEEEEDEDQDYSFPISSILEWSGGGGSEVQLLESGGGLVQPGGSLRLSCAVSGIDLSNYAINWVRQAPGKGLEWIGIIWASGTTFYATWAKGRFTISRDNSKNTVYLQMNSLRAEDTAVYYCARTVPGYSTAPYFDLWGQGTLVTVSSASTKGPSVFPLAPSSKSTSGGTAALGCLVKDYFPEPVTVSWNSGALTSGVHTFPAVLQSSGLYSLSSVVTVPSSSLGTQTYICNVNHKPSNTKVDKKVEPKSC
light: DIQMTQSPSSVSASVGDRVTITCQSSPSVWSNFLSWYQQKPGKAPKLLIYEASKLTSGVPSRFSGSGSGTDFTLTISSLQPEDFATYYCGGGYSSISDTTFGGGTKVEIKRTVAAPSVFIFPPSDEQLKSGTASVVCLLNNFYPREAKVQWKVDNALQSGNSQESVTEQDSKDSTYSLSSTLTLSKADYEKHKVYACEVTHQGLSSPVTKSFNRGEC
notes: paired with the Fab light chain; also called FST-Fab1; FST-Fab 1

IC50 (read off the curve) (Activin B [4]): ~2 nM
IC50 (read off the curve) (Activin A [21]): ~0.4 nM
IC50 (read off the curve) (GDF8 (myostatin) [5]): ~3 nM
IC50 (read off the curve) (GDF11 [6]): ~6 nM
IC50 (geomean), Smad2/3 reporter gene assay, HEK-Blue TGFb cells (Activin B [11]): 1.57 nM
IC50 (geomean), Smad2/3 reporter gene assay, HEK-Blue TGFb cells (Activin A [12]): 0.31 nM
IC50 (geomean), Smad2/3 reporter gene assay, HEK-Blue TGFb cells (GDF8 (myostatin) [13]): 3.08 nM
IC50 (geomean), Smad2/3 reporter gene assay, HEK-Blue TGFb cells (GDF11 [14]): 8.37 nM
B3: FST315WT (other)
chain: GNCWLRQAKNGRCQVLYKTELSKEECCSTGRLSTSWTEEDVNDNTLFKWMIFNGGAPNCIPCKETCENVDCGPGKKCRMNKKNKPRCVCAPDCSNITWKGPVCGLDGKTYRNECALLKARCKEQPELEVQYQGRCKKTCRDVFCPGSSTCVVDQTNNAYCVTCNRICPEPASSEQYLCGNDGVTYSSACHLRKATCLLGRSIGLAYEGKCIKAKSCEDIQCTGGKKCLWDFKVGRGRCSLCDELCPDSKSDEPVCASDNATYASECAMKEAACSSGVLLEVKHSGSCNSISEDTEEEEEDEDQDYSFPISSILEW

Reference: patent publication US20260049126A1 (UCB, published 2026)
